Experiments:
Format in all cases: biochemical
elastase = experiment: Digestion of Fc-BSA with elastase, differential pulse voltammetry
Experimental: (§1) Protease assays were performed as follows unless stated otherwise. […] Samples were incubated at 37° C. for 1 hour.
A digestion of Fc-BSA with elastase was carried out as described above. […] The positive reaction has a peak position of 430 mV and a peak height of 2.57×10^−7 A; the no elastase control reaction has a peak position of 432 mV and a peak height of 2.55×10^−8 A.

[1] = biological target: T1, porcine stomach mucosa pepsin (Sus scrofa, UniProt P00791); experiment: Digestion of Fc-BSA with pepsin, differential pulse voltammetry
T1 construct: purchased Sigma; host or cells: porcine stomach mucosa
T1 sequence (P00791 60-385): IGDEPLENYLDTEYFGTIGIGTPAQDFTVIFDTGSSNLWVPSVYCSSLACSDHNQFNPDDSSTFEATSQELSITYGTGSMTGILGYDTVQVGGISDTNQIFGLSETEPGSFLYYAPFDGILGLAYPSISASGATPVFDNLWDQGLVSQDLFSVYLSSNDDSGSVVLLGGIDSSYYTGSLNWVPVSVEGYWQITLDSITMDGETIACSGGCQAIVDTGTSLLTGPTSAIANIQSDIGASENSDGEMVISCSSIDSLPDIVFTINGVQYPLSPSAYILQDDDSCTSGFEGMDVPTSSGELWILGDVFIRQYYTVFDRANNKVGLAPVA
Experimental: as §1
A digestion of Fc-BSA with pepsin was carried out as described above. […] The positive reaction has a peak position of 537 mV and a peak height of 8.90×10^−8 A; the no-pepsin control reaction has a peak position of 522 mV and a peak height of 4.19×10^−8 A.

porcine pancreas trypsin = biological target: T2, porcine pancreas trypsin (Sus scrofa, UniProt P00761); experiment: Effect of a protease inhibitor on electrochemical marker signal (trypsin digestion of Fc-BSA); details: reaction (i): no inhibitor added
T2 construct: purchased Sigma; host or cells: porcine pancreas
T2 sequence (P00761 9-231): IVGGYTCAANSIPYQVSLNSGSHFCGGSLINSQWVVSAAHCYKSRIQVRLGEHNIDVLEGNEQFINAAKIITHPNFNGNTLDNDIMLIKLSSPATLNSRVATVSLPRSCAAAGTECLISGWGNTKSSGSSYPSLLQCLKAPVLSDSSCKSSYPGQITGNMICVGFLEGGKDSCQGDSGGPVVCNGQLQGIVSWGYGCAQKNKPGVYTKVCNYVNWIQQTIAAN
Experimental: as §1
Five digestions of Fc-BSA with trypsin were carried out using the protocol described above. In addition, soybean trypsin inhibitor was added to reaction mixtures […]. Solutions of the soybean trypsin inhibitor were prepared by resuspending inhibitor as supplied in deionised water to a concentration of 10 mg/ml and 1 mg/ml as appropriate. No inhibitor was added to reaction (i); 0.5 μl of 1 mg/ml inhibitor solution was added to reaction (ii); […] of 10 mg/ml inhibitor was added to reaction (iii); 5 μl of 10 mg/ml inhibitor solution was added to reaction (iv) and 5 μl of 10 mg/ml inhibitor solution was added to a no-trypsin control reaction. The differential pulse voltammogram results are shown in FIG. 16 with baseline correction.

[2] = positive reaction, 10 mM HCl pH 2.0, 37° C. for 1 hour

Fc-BSA: Bovine serum albumin labelled with ferrocene methanoyl groups via N-hydroxysuccinimide ester; estimated 10 to 20 ferrocenes per BSA
peak height (elastase; no elastase control reaction): 2.55×10^−8 A
peak height (elastase; positive reaction, tris HCl pH 8.5, 37° C. for 1 hour): 2.57×10^−7 A
peak height ([1]; no-pepsin control reaction): 4.19×10^−8 A
peak position ([1]; no-pepsin control reaction): 522 mV
peak height [1, 2]: 8.90×10^−8 A
peak position [1, 2]: 537 mV
peak height (porcine pancreas trypsin): 2.56×10^−7 A
peak position (porcine pancreas trypsin): 439 mV

Reference: US7803572B2, “Protease detection assay” (Atlas Genetics, Ltd., priority 2003, dated 2010)
